Laboratory results: patent publication US20170096461A1 (IMMATICS BIOTECHNOLOGIES, published 2017)

Target: T1, HLA-A*02:01 (peptide-receptive MHC class I monomer after UV-ligand exchange) (human)
T1 construct: Monomers made with a UV-sensitive peptide that is cleaved by UV and exchanged for the test peptide; captured on streptavidin plates; also called MHC molecules
Test: UV-ligand exchange + anti-b2m ELISA; exchange yield grade: + >=10%, ++ >=20%, +++ >=50, ++++ >=75%
Excerpt: Candidate peptides for T cell based therapies according to the present invention were further tested for their MHC binding capacity (affinity). The individual peptide-MHC complexes were produced by UV-ligand exchange, where a UV-sensitive peptide is cleaved upon UV-irradiation, and exchanged with the peptide of interest as analyzed. Only peptide candidates that can effectively bind and stabilize the peptide-receptive MHC molecules prevent dissociation of the MHC complexes. To determine the yield of the exchange reaction, an ELISA was performed based on the detection of the light chain (β2m) of stabilized MHC complexes. The assay was performed as generally described in Rodenko et al. (Rodenko et al., 2006).
96 well MAXISorp plates (NUNC) were coated over night with 2 ug/ml streptavidin in PBS at room temperature, washed 4× and blocked for 1 h at 37° C. in 2% BSA containing blocking buffer. Refolded HLA-A*02:01/MLA-001 monomers served as standards, covering the range of 15-500 ng/ml. Peptide-MHC monomers of the UV-exchange reaction were diluted 100 fold in blocking buffer. Samples were incubated for 1 h at 37° C., washed four times, incubated with 2 ug/ml HRP conjugated anti-β2m for 1 h at 37° C., washed again and detected with TMB solution that is stopped with […]. Absorption was measured at 450 nm. Candidate peptides that show a high exchange yield (preferably higher than 50%, most preferred higher than 75%) are generally preferred for a generation and production of antibodies or fragments thereof, and/or T cell receptors or fragments thereof, as they show sufficient avidity to the MHC molecules and prevent dissociation of the MHC complexes.

peptide exchange yield [%] | Binder
50 to 75 | SLFSQMGSQYEL [peptide SLFSQMGSQYEL (SEQ ID NO: 56)]
≥ 75 | VLIGDVLVAV [peptide VLIGDVLVAV (SEQ ID NO: 57)]
≥ 75 | VLLNINGIDL [peptide VLLNINGIDL (SEQ ID NO: 58)]
≥ 75 | VLLSGLTEV [peptide VLLSGLTEV (SEQ ID NO: 59)]
≥ 75 | VVSGATETL [peptide VVSGATETL (SEQ ID NO: 60)]
50 to 75 | YQAPYFLTV [peptide YQAPYFLTV (SEQ ID NO: 61)]
50 to 75 | VMLPIGAVVMV [peptide VMLPIGAVVMV (SEQ ID NO: 62)]
50 to 75 | VLFHQLQEI [peptide VLFHQLQEI (SEQ ID NO: 64)]
50 to 75 | VMYDLITEL [peptide VMYDLITEL (SEQ ID NO: 65)]
50 to 75 | YLNLISTSV [peptide YLNLISTSV (SEQ ID NO: 66)]
20 to 50 | TLLWKLVEV [peptide TLLWKLVEV (SEQ ID NO: 70)]
50 to 75 | SLSSYTPDV [peptide SLSSYTPDV (SEQ ID NO: 73)]
50 to 75 | SLDLHVPSL [peptide SLDLHVPSL (SEQ ID NO: 75)]
≥ 75 | TLHRETFYL [peptide TLHRETFYL (SEQ ID NO: 88)]
50 to 75 | TLVDNISTMAL [peptide TLVDNISTMAL (SEQ ID NO: 90)]
50 to 75 | YLQDYTDRV [peptide YLQDYTDRV (SEQ ID NO: 92)]
10 to 20 | VADPETRTV [peptide VADPETRTV (SEQ ID NO: 100)]
≥ 75 | SLLEYQMLV [peptide SLLEYQMLV (SEQ ID NO: 103)]
50 to 75 | TLIQFTVKL [peptide TLIQFTVKL (SEQ ID NO: 104)]

The next lines start with the binder.

Binder | peptide exchange yield [%]
LLIADNPQL [peptide LLIADNPQL (SEQ ID NO: 55)] | ≥ 75
LLMSTENEL [peptide LLMSTENEL (SEQ ID NO: 63)] | 50 to 75
SIMDYVVFV [peptide SIMDYVVFV (SEQ ID NO: 6)] | ≥ 75
MLYDIVPVV [peptide MLYDIVPVV (SEQ ID NO: 67)] | 50 to 75
FLFPVYPLI [peptide FLFPVYPLI (SEQ ID NO: 68)] | 50 to 75
KLFDRSVDL [peptide KLFDRSVDL (SEQ ID NO: 69)] | 20 to 50
FIFEQVQNV [peptide FIFEQVQNV (SEQ ID NO: 71)] | 50 to 75
KAIGSLKEV [peptide KAIGSLKEV (SEQ ID NO: 72)] | 50 to 75
GLLGDIAIHL [peptide GLLGDIAIHL (SEQ ID NO: 7)] | 50 to 75
FLDSLSPSV [peptide FLDSLSPSV (SEQ ID NO: 74)] | 50 to 75
AIIDGKIFCV [peptide AIIDGKIFCV (SEQ ID NO: 77)] | 50 to 75
RIIDPEDLKALL [peptide RIIDPEDLKALL (SEQ ID NO: 78)] | ≥ 75
RLLEPAQVQQL [peptide RLLEPAQVQQL (SEQ ID NO: 79)] | 50 to 75
ILMDPSPEYA [peptide ILMDPSPEYA (SEQ ID NO: 80)] | 50 to 75
LLAEIGAVTLV [peptide LLAEIGAVTLV (SEQ ID NO: 81)] | 50 to 75
ALSSVIKEL [peptide ALSSVIKEL (SEQ ID NO: 82)] | 50 to 75
KLLEIDIDGV [peptide KLLEIDIDGV (SEQ ID NO: 83)] | 50 to 75

Binder | peptide exchange yield [%]
KMFENEFLL [peptide KMFENEFLL (SEQ ID NO: 84)] | 50 to 75
AAAPGEALHTA [peptide AAAPGEALHTA (SEQ ID NO: 9)] | 20 to 50
FAYDGKDYLTL [peptide FAYDGKDYLTL (SEQ ID NO: 85)] | 50 to 75
KVIDYVPGI [peptide KVIDYVPGI (SEQ ID NO: 86)] | 50 to 75
LLQNNLPAV [peptide LLQNNLPAV (SEQ ID NO: 87)] | ≥ 75
IQHDLIFSL [peptide IQHDLIFSL (SEQ ID NO: 89)] | 50 to 75
KLQDGVHII [peptide KLQDGVHII (SEQ ID NO: 91)] | 50 to 75
ALRETVVEV [peptide ALRETVVEV (SEQ ID NO: 93)] | 50 to 75
ALFPVAEDISL [peptide ALFPVAEDISL (SEQ ID NO: 94)] | 50 to 75
KLFAIPILL [peptide KLFAIPILL (SEQ ID NO: 11)] | 50 to 75
ALYSKGILL [peptide ALYSKGILL (SEQ ID NO: 95)] | ≥ 75
NLLKLIAEV [peptide NLLKLIAEV (SEQ ID NO: 96)] | ≥ 75
ALLDGTVFEI [peptide ALLDGTVFEI (SEQ ID NO: 97)] | 50 to 75
ALVDHLNVGV [peptide ALVDHLNVGV (SEQ ID NO: 98)] | 50 to 75
QMLEAIKALEV [peptide QMLEAIKALEV (SEQ ID NO: 99)] | ≥ 75
AMNSQILEV [peptide AMNSQILEV (SEQ ID NO: 101)] | 50 to 75
ALFARPDLLLL [peptide ALFARPDLLLL (SEQ ID NO: 102)] | ≥ 75
